In article PMC2118910:

How the values were obtained:
Assay in all cases: cell-cell adhesion assay
[1] = biological target: human CD8 alpha mutant M7 (human)
[2] = biological target: mouse CD8 alpha (Lyt-2) (mouse) (UniProt P01731)
[3] = biological target: human CD8 alpha mutant M10 (human)
[4] = biological target: human CD8 alpha mutant M4 (human) (UniProt P01732)
[5] = biological target: human CD8 alpha mutant M8 (human) (UniProt P01732)
[6] = biological target: human CD8 alpha mutant M6 (human)
[7] = biological target: human CD8 alpha mutant M5 (human) (UniProt P01732)
[8] = biological target: human CD8 alpha mutant M9 (human) (UniProt P01732)
[9] = biological target: human CD8 alpha mutant M2 (human) (UniProt P01732)
[10] = biological target: human CD8 alpha mutant M3 (human)
[11] = biological target: human CD8 alpha mutant M1 (human)

UniProt P01731, sequence (P01731 28-247): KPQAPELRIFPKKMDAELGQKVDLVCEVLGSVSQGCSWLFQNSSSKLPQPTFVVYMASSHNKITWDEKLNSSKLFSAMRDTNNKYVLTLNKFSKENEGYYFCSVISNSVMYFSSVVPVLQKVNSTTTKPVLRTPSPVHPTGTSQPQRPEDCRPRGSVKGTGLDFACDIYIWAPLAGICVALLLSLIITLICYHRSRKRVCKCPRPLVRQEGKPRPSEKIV

Question: “HLA class I on the human B lymphoblastoid cell line UC” was tested. Which percent binding relative to wild type [1] did it give?
Answer: Its percent binding relative to wild type is 31.3%.

Question: What about the percent binding relative to wild type [2] of the same substance?
Answer: Its percent binding relative to wild type is -0.6 to 5.8%.

Question: What about the percent binding relative to wild type [3] of the same substance?
Answer: The percent binding relative to wild type was 42.6%.

Question: What about the percent binding relative to wild type [4] of the same substance?
Answer: Its percent binding relative to wild type is greater than 80%.

Question: And the percent binding relative to wild type [5]?
Answer: The percent binding relative to wild type was greater than 80%.

Question: What about the percent binding relative to wild type [6] of the same substance?
Answer: Its percent binding relative to wild type is 49.1%.

Question: And the percent binding relative to wild type [7]?
Answer: The percent binding relative to wild type was 11%.

Question: And the percent binding relative to wild type [8]?
Answer: The percent binding relative to wild type was 56.9%.

Question: What about the percent binding relative to wild type [9] of the same substance?
Answer: Its percent binding relative to wild type is 1.7%.

Question: What about the percent binding relative to wild type [10] of the same substance?
Answer: The percent binding relative to wild type was 13.5%.

Question: And the percent binding relative to wild type [11]?
Answer: The percent binding relative to wild type was 15.7%.
